Legend:
[1] = molecular target: T1, OPR3 (12-oxophytodienoic acid reductase 3) (Arabidopsis thaliana, UniProt Q9FUP0); experiment: intrinsic Trp fluorescence quenching; format: binding; conditions: 0.75 µmol/L OPR3, 40 mmol/L KPi pH 7.2, 25°C
[2] = molecular target: T1, OPR3 (12-oxophytodienoic acid reductase 3); conditions: NADPH co-substrate, 40 mmol/L KPi pH 7.2, 25°C, aerobic
[3] = system: CC/C=C\C[C@@H]1C(=O)C=C[C@@H]1CCCCCCCC(=O)O; experiment: purified protein; conditions: pH 7.2; 25.0 °C
[4] = system: O=C1C=CCC1; experiment: purified protein; conditions: pH 7.2; 25.0 °C
[5] = system: [O]C1=C(O)[C@@H]([C@@H](O)CO)OC1=O; experiment: purified protein; conditions: pH 7.8

T1 sequence (Q9FUP0 whole entry): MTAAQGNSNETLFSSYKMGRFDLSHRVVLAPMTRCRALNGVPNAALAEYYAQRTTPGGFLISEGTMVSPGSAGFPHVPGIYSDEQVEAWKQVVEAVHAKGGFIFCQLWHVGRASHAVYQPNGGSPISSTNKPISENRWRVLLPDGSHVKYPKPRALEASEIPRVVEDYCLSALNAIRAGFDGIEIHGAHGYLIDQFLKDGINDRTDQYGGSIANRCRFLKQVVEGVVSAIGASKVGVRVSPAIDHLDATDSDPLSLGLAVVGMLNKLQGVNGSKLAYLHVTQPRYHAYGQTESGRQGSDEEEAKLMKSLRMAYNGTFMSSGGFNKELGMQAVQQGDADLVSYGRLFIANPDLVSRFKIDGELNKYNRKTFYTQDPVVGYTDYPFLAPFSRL

Compound: CC/C=C\C[C@@H]1C(=O)C=C[C@@H]1CCCCCCCC(=O)O [12-OPDA]
- % quenching at 607 μmol/L [1]: 54.0±0.4%

Compound: C=CC(C)=O [MVK]
- Km [2]: 38.5 ± 14 µM

Compound: OPR3 (12-oxophytodienoic acid reductase 3) (Arabidopsis thaliana)
- Km [3]: 28.3 ± 8.5 µmol/L
- Km [4]: 1967 ± 825 µmol/L
- Km [5]: 1 µmol/L
